{
  "source": "patent US20200308299A1",
  "about": "“ANTI-GPC-1 ANTIBODY” (National University Corporation Kochi University, priority 2017, published 2020)",
  "molecules": {"B1": {"name": "clone 01a033 (antibody)", "heavy": "QVQLKQSGPELVKPGASVKISCKASGYSFTGYYMHWVKQSPEKSLEWIGEINPSTGDTTYNQKFKAKATLTVDKSSSTAYMQLKSLTSEDSAVYYCAREKRDDGVFAYWGQGTLVTVSSAKTTAPSVYPLAPVCGDTTGSSVTLGCLVKGYFPEPVTLTWNSGSLSSGVHTFPAVLQSDLYTLSSSVTVTSSTWPSQSITCNVAHPASSTKVDKKIEPRGPTIKPCPPCKCPAPNLLGGPSVFIFPPKIKDVLMISLSPIVTCVVVDVSEDDPDVQISWFVNNVEVHTAQTQTHREDYNSTLRVVSALPIQHQDWMSGKEFKCKVNNKDLPAPIERTISKPKGSVRAPQVYVLPPPEEEMTKKQVTLTCMVTDFMPEDIYVEWTNNGKTELNYKNTEPVLDSDGSYFMYSKLRVEKKNWVERNSYSCSVVHEGLHNHHTTKSFSRTPGK", "light": "DIVMSQSPKSMSMSVGERVALSCKASENVGTYVSWYQQKPEQSPKLLIYGASNRYTGVPDRFTGSGSATDFTLTISSVQAEDLADYYCGQSYSYPLTFGAGTKLELKRADAAPTVSIFPPSSEQLTSGGASVVCFLNNFYPKDINVKWKIDGSERQNGVLNSWTDQDSKDSTYSMSSTLTLTKDEYERHNSYTCEATHKTSTSPIVKSFNRNEC"}, "B2": {"name": "GPC1 ADC (conjugate)", "heavy": "B1 heavy", "light": "B1 light"}},
  "key": {"TE8 cells [1]": {"system": "TE8 cells", "assay": "ADC assay combining anti-GPC-1 antibody and MMAF binding secondary antibody, TE8 cells", "format": "cell-based", "details": "primary antibody plus MMAF secondary antibody"}, "LLC-control-7 cells": {"system": "LLC-control-7 cells", "assay": "In vitro ADC assay, LLC-control-7 cells", "format": "cell-based", "details": "does not express mouse GPC-1, 72 hours", "protocol": "An mGPC1 expression vector (pcDNA3.1-mGPC1) and control vector (pcDNA3.1V5/His) were transfected using Lipofectamine® 2000 into LLC cell strain (mouse lung cancer cell strain). Cells subjected to gene transfer were selected by adding G418 to a medium, and the formed colony was picked up. The expression of mGPC1 was analyzed by FACS using anti-GPC1 antibody clone 01a033. LLC-mGPC1-16 cells were established as an mGPC1 stable expression strain, and LLC-control-7 was established as the control.\nPreparation of a conjugate of mouse anti-glypican-1 mAb (01a033), mouse IgG2a (biolegend #400224) as a control, and mc-vc-PAB-MMAF was commissioned to MORADEC. An anticancer agent was conjugated to a cysteine residue via a cleavable linker. The DAR (drug-antibody ratio) was as follows. […]\nRPMI1640+10% FBS+100 U/ml penicillin+100 μg/ml streptomycin was used as the medium. […] (3) After 72 hours of culturing, CellTiter-Glo™ Luminescence Cell Viability Assay reagent (Promega) was added and mixed at 100 μL/well. (4) Measurements were taken with a plate reader. […]\nThe IC50 values were calculated from the following equation (Hossain M M, Hosono-Fukao T, Tang R, Sugaya N, van Kuppevelt T H, Jenniskens G J, Kimata K, Rosen S D, Uchimura K (2010) Direct detection of HSulf-1 and HSulf-2 activities on extracellular heparan sulphate and their inhibition by PI-88. Glycobiology […]: 175-186.) […]"}, "ME180 cells": {"system": "ME180 cells", "assay": "In vitro ADC assay, ME180 cells", "format": "cell-based", "details": "ME180, 144 hours", "protocol": "(§1) Preparation of a conjugate of mouse anti-Glypican-1 mAb (01a033), mouse IgG2a (biolegend #400224) as a control, and mc-vc-PAB-MMAF was commissioned to MORADEC. An anticancer agent was conjugated to a cysteine residue via a cleavable linker. The DAR (drug-antibody ratio) was as follows. GPC1-CL-MMAF DAR=3.8, mouse IgG2a-CL-MMAF DAR=4.1.\n(§2) (1) The cells were seeded on Thermo Fisher Scientific's 96-well white plate (model no.: 136101) (90 μl cell suspension). RPMI1640+10% FBS+100 U/ml penicillin+100 μg/ml streptomycin was used as the medium. The cells were seeded in 60 wells, and 100 μL of medium was added to 36 wells, and cultured in a 5% CO2 incubator at 37° C. (2) The next day, 10 μL of ADC was added to the cells (total amount: 100 μL). (3) After 144 hours of culture, a CellTiter-Glo™ Luminescence Cell Viability Assay reagent (Promega) was added and mixed at 100 μL/well. (4) Measurements were taken with a plate reader. (5) Analysis was conducted with GraphPad Prism 6.\n(§3) The IC50 values were calculated from the following equation (Hossain M M, Hosono-Fukao T, Tang R, Sugaya N, van Kuppevelt T H, Jenniskens G J, Kimata K, Rosen S D, Uchimura K (2010) Direct detection of HSulf-1 and HSulf-2 activities on extracellular heparan sulphate and their inhibition by PI-88. Glycobiology 20(2): 175-186.)\n(§4) IC50=10^(Log [A][B]×(50−C)/(D−C)+Log [B]) […]"}, "LK2 cells": {"system": "LK2 cells", "assay": "In vitro ADC assay, LK2 cells", "format": "cell-based, human", "details": "144 hours; LK2 hardly express GPC1", "protocol": "as §1, §2, §3, §4"}, "TE8 cells [2]": {"system": "TE8 cells", "assay": "Internalization assay on GPC1 ADC (01a033), TE8 cells", "format": "cell-based", "details": "0-24 h", "protocol": "Detection was performed on cells treated with GPC1 ADC (01a033) MMAF with anti-GPC1 mAb (biotin-labeled 02b006) and PE-labeled streptavidin.\nTE8, HeLa, ME180, BxPC3, and T3M4 cell strains were detached and collected from a 10 cm plate using 0.02% EDTA. Cells were suspended in RPMI1640+10% FBS+100 U/ml penicillin+100 μg/ml streptomycin, and two 1.5 ml tubes were created at 1.0×10^6 cells/0.9 ml. To lower the internalization activity, the tubes were left standing on ice for 1 hour. 1 mg/ml of GPC1 ADC (01a033) MMAF was diluted to 24 μg/mL (160 nM) with ice-cooled RPMI1640+10% FBS+100 U/ml penicillin+100 μg/ml streptomycin. 100 μl of the ADC was added and suspended in the cell suspension and incubated on ice for 30 minutes to stain the antigens on the cell surface. After 30 minutes, the cell suspension was dispensed into 7 tubes each at 100 μl each. The cell suspension was separated into 4° C. incubation group and 37° C. incubation group in 14 tubes. The incubation times were 0.0 h, 1 h, 2 h, 3 h, 4 h, 6 h, 12 h, and 24 h. After reaching the incubation time, the cells were centrifuged at 1500 rpm at 4° C. for 5 minutes to remove the supernatant. The cells were washed with 100 μl of ice cooled PBS+0.2% BSA and subjected to centrifugation to wash the cells. Washing operation was performed three times in total. […]"}},
  "data": [
    {"molecule": "B1", "values": [
      {"measurement": "antitumor effect on TE8", "setting": "TE8 cells [1]", "value": "particularly potent antitumor effect"},
      {"measurement": "effect of suppressing growth against LLC-control-7", "setting": "LLC-control-7 cells", "value": "low effect of suppressing growth"}
    ]},
    {"molecule": "B2", "values": [
      {"measurement": "effect of suppressing cell growth", "setting": "ME180 cells", "value": "exhibits an effect of suppressing cell growth"},
      {"measurement": "antitumor effect against LK2 cells", "setting": "LK2 cells", "value": "hardly exhibited"},
      {"measurement": "residual amount of Glypican-1 on the cell surface", "setting": "TE8 cells [2]; TE8, incubation at 4° C.", "value": "hardly changed"},
      {"measurement": "Glypican-1 remaining on the cell surface", "setting": "TE8 cells [2]; TE8, incubation at 37° C.", "value": "decreases with the passage of incubation time"}
    ]}
  ]
}
